Results on 1 molecule are retold here after publication PMC7864056, “Functional and structural characterization of allosteric activation of phospholipase Cε by Rap1A” (The Journal of Biological Chemistry, 2020).

Holding throughout (experiment): cell-based or functional assay
Experiment [1] concerns the target R. norvegicus PLCε PH-COOH K2150A (R. norvegicus, UniProt Q99P84 837-2281, K2150A).
The target in experiment [2] is R. norvegicus PLCε PH-COOH variant (residues 837-2282) (R. norvegicus, UniProt Q99P84 837-2281).
Chain of R. norvegicus PLCε PH-COOH variant (residues 837-2282) (Q99P84 837-2281, stated change not applied): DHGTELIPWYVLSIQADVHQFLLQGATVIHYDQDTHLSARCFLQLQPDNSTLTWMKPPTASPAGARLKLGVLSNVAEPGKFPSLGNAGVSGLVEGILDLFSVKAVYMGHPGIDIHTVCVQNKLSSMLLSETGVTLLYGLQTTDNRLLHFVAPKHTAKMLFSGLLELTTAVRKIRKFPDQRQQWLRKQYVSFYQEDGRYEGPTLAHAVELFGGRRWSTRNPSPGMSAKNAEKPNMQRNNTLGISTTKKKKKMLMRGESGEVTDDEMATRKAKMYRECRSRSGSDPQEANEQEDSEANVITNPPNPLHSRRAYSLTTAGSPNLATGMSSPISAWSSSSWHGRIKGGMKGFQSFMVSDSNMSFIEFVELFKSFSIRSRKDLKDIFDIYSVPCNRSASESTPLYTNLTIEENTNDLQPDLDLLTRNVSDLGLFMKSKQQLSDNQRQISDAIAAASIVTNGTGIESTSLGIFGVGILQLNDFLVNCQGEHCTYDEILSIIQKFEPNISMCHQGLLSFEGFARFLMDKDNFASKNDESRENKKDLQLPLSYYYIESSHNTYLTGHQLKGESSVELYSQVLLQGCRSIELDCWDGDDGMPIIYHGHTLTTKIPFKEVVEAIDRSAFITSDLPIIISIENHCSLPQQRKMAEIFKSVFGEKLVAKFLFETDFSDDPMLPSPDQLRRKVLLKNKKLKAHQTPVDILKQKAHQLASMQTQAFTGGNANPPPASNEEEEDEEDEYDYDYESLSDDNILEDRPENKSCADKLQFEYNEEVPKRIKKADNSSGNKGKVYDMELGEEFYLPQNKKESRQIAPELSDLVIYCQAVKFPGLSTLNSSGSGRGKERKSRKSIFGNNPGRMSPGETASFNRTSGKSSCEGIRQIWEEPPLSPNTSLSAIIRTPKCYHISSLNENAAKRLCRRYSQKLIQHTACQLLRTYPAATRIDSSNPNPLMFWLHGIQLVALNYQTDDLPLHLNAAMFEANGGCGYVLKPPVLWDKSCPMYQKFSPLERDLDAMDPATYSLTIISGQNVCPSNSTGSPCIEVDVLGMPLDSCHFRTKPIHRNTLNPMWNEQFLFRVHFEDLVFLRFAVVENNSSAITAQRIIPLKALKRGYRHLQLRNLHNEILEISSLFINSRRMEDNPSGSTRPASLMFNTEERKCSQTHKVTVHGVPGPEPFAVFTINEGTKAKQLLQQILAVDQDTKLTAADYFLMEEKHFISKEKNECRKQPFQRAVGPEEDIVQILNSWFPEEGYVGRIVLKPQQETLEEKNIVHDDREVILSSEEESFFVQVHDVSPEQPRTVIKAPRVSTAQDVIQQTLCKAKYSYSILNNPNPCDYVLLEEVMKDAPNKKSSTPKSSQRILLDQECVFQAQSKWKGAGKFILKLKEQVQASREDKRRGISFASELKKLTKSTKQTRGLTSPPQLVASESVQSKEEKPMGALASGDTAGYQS
In experiment [3] the target is R. norvegicus PLCε PH-COOH K2152A (R. norvegicus, UniProt Q99P84 837-2281, K2152A).
Chain of R. norvegicus PLCε PH-COOH K2152A (Q99P84 837-2281 K2152A): as the sequence (Q99P84 837-2281, stated change not applied) above, with K1316A counted along it

Chain of R. norvegicus PLCε PH-COOH K2150A (Q99P84 837-2281 K2150A): as the sequence (Q99P84 837-2281, stated change not applied) above, with K1314A counted along it

B1: constitutively active and prenylated Homo sapiens Rap1A G12V, GTP-bound (natural protein, UniProt P62834 1-184, looked up)
chain: MREYKLVVLGSVGVGKSALTVQFVQGIFVEKYDPTIEDSYRKQVEVDCQQCMLEILDTAGTEQFTAMRDLYMKNGQGFALVYSITAQSTFNDLQDLREQILRVKDTEDVPMILVGNKCDLEDERVVGKEQGQNLARQWCNCAFLESSAKSKINVNEIFYDLVRQINRKTPVEKKKPKKKSCLLL
modifications: prenylated
As for B1, the entries for the “Fold activation by Rap1A^G12V of lipase activity, liposome-based [3H]PIP2 hydrolysis assay” value in experiment [1] and in experiment [3] were 1.8 fold and 0.9 fold, respectively. Also, in experiment [2], the “Fold activation by Rap1A^G12V of lipase activity, liposome-based [3H]PIP2 hydrolysis assay, increasing concentrations of Rap1A^G12V·GTP” value came out at 3 fold.
